Reference: patent JP2018058812A

Molecular target: バキュロウイルスを用いて作製したFlagタグ融合インフルエンザウィルスH1N1由来のリコンビナントヌクレオプロテイン(NP)タンパク質 (influenza A virus H1N1)

B1: 配列番号:08により表されるアミノ酸配列からなるVHH抗体 (VHH)
VHH: QVQLVESGGGLVQAGGSLRLSCAASRTIFNPNVMGWYRQAPGKQRELVADISLSGSTNYADSVKGRFTISRDNAKNTMYLQMNSLKPEDTAVYYCNTNAISGAPGRYWGQGTQVTVSS
  Kd: 236 pM
